Experiments:
Assay in all cases: cell-based or functional assay
[1] = target: HIV-1 Env of pseudovirus MGRM-G-024 (HIV-1)
[2] = target: HIV-1 Env of isolate MGRM-D-021 (clade D pseudovirus) (HIV-1)
[3] = target: HIV-1 Env of isolate APV_17, clade B (HIV-1)
[4] = target: HIV-1 Env of isolate MGRM-D-028 (clade D pseudovirus) (HIV-1)
[5] = target: HIV-1 Env of isolate MGRM-D-013 (clade D pseudovirus) (HIV-1)
[6] = target: HIV-1 Env of pseudovirus MGRM-F1-012 (clade F) (HIV-1)
[7] = target: HIV-1 Env of isolate MGRM-A-008 (clade A pseudovirus) (HIV-1)
[8] = target: HIV-1 Env of isolate MGRM-Chronic-B-008, clade B (HIV-1)
[9] = target: HIV-1 Env of isolate 92RW009 (clade A pseudovirus) (HIV-1)
[10] = target: HIV-1 Env of isolate 92RW020 (clade A pseudovirus) (HIV-1)
[11] = target: HIV-1 MGRM-AG-009 Env (pseudovirus) (HIV-1)
[12] = target: HIV-1 Env of pseudovirus MGRM-F1-010 (clade F) (HIV-1)
[13] = target: HIV-1 Env of pseudovirus MGRM-G-028 (HIV-1)
[14] = target: HIV-1 envelope glycoprotein (Env) of isolate 93IN905 (HIV-1)
[15] = target: HIV-1 Env of isolate 92UG037 (clade A pseudovirus) (HIV-1)
[16] = target: HIV-1 Env of isolate QH0692.42 (Acute), clade B (HIV-1)
[17] = target: HIV-1 envelope glycoprotein (Env) of isolate MGRM-AE-008 (HIV-1)
[18] = target: HIV-1 Env of pseudovirus MGRM-F1-008 (HIV-1)
[19] = target: HIV-1 envelope glycoprotein (Env) of isolate MG RM-AG-001 (HIV-1)
[20] = target: HIV-1 envelope glycoprotein (Env) of isolate MG RM-AG-003 (HIV-1)
[21] = target: HIV-1 Env of pseudovirus MGRM-F1-023 (HIV-1)
[22] = target: HIV-1 Env of pseudovirus MGRM-F1-020 (HIV-1)
[23] = target: HIV-1 Env of isolate 92RW009 (subtype A) (HIV-1)
[24] = target: HIV-1 Env of pseudovirus isolate APV-13 (clade B) (HIV-1)
[25] = target: HIV-1 Env of isolate MGRM-C-019 (subtype C), on pseudovirus (HIV-1)
[26] = target: HIV-1 Env of isolate MGRM-AE-003 (pseudovirus) (HIV-1)
[27] = target: HIV-1 Env of pseudovirus isolate MGRM-Chronic-B-002 (clade B) (HIV-1)
[28] = target: HIV-1 Env of isolate MGRM-G-024 (subtype G) (HIV-1)
[29] = target: HIV-1 Env of isolate 92TH021 (pseudovirus) (HIV-1)

Sequence of PGT-145 (4995_P16) (antibody) (VH): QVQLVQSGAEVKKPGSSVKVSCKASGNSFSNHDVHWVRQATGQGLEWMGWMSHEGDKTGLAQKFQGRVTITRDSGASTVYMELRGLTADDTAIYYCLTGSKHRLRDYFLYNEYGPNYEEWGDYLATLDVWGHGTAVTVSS
Sequence of PGT-145 (4995_P16) (antibody) (VL): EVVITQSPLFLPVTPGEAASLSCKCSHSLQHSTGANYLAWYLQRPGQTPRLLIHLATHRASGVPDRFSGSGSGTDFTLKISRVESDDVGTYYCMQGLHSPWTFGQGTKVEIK
Sequence of PGT-142 (4995_E20) (antibody) (VH): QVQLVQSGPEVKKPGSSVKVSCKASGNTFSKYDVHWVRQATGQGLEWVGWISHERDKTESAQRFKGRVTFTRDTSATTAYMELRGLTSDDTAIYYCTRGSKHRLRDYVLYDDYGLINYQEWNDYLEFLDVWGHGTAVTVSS
Sequence of PGT-142 (4995_E20) (antibody) (VL): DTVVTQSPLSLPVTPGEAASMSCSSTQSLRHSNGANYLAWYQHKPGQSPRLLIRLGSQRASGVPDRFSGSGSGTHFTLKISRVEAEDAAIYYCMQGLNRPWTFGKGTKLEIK
Sequence of 1443_C16 (PG16) (TCN-116) (antibody) (VH): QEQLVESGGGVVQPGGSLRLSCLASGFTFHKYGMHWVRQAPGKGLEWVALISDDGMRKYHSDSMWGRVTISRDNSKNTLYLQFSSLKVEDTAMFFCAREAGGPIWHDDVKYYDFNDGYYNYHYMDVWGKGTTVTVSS
Sequence of 1443_C16 (PG16) (TCN-116) (antibody) (VL): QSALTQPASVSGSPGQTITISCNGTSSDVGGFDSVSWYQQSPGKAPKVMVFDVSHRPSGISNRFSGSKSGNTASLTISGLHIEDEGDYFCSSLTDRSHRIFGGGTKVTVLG
Sequence of PGT-141 (4964_G22; 4993_K13) (antibody) (VH): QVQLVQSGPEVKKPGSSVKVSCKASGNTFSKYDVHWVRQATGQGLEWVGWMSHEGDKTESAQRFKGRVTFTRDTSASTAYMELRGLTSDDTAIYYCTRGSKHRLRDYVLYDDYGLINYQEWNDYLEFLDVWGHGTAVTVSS
Sequence of PGT-144 (4970_K22) (antibody) (VH): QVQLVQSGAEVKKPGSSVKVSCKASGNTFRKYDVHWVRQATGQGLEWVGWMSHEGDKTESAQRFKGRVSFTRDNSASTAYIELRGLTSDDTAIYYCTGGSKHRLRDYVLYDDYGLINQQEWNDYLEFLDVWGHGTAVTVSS
Sequence of PGT-144 (4970_K22) (antibody) (VL): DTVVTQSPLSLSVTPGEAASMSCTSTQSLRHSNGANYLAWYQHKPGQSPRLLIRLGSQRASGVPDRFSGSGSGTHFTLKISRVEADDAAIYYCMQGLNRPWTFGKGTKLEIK
Sequence of PGT-143 (4980_N08) (antibody) (VH): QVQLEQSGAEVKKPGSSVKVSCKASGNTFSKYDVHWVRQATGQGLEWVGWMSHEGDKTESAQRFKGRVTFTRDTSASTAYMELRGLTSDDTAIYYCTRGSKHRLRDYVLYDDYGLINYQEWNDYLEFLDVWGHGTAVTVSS
Sequence of PGT-143 (4980_N08) (antibody) (VL): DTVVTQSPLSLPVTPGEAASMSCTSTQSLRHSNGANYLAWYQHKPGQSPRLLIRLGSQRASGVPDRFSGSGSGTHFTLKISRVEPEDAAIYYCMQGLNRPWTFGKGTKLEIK

Substance: 4E10 (antibody)
- IC50 (µg/ml), pseudovirus neutralization [1]: 1.57 µg/mL
- IC50, pseudovirus neutralization [2]: 13.3 µg/mL
- IC50 (µg/ml), pseudovirus neutralization [3]: 10.5 µg/mL
- IC50, pseudovirus neutralization [4]: 1.28 µg/mL
- IC50, pseudovirus neutralization [5]: 5.38 µg/mL
- IC50 [6]: 0.37 µg/mL
- IC50 (µg/ml), pseudovirus neutralization [7]: 7.59 µg/mL
- IC50 (µg/ml), pseudovirus neutralization [8]: 16.7 µg/mL
- IC50 (µg/ml), pseudovirus neutralization [9]: > 50 µg/mL
- IC50 (µg/ml), pseudovirus neutralization [10]: 4.54 µg/mL
- IC50 (µg/ml), pseudovirus neutralization [11]: 31.4 µg/mL
- IC50 [12]: 3.69 µg/mL
- IC50 (µg/ml), pseudovirus neutralization [13]: 6.32 µg/mL
- IC50 (µg/ml), pseudovirus neutralization [14]: 1.26 µg/mL
- IC50 (µg/ml), pseudovirus neutralization [15]: 8.84 µg/mL
- IC50 (µg/ml), pseudovirus neutralization [16]: 12.7 µg/mL

Substance: PGT-143 (4980_N08) (antibody)
- IC50 [17]: 0.135 µg/mL
- IC50, pseudovirus neutralization [18]: 0.189 µg/mL
- IC50 [19]: 18.9 µg/mL
- IC50 [20]: > 50 µg/mL
- IC50, pseudovirus neutralization [21]: 0.972 µg/mL
- IC50, pseudovirus neutralization [22]: 0.98 µg/mL

Substance: PGT-142 (4995_E20) (antibody)
- IC50 [17]: 0.08 µg/mL
- IC50, pseudovirus neutralization [18]: 0.124 µg/mL
- IC50 [19]: 12.4 µg/mL
- IC50 [20]: > 50 µg/mL
- IC50, pseudovirus neutralization [21]: 0.602 µg/mL
- IC50, pseudovirus neutralization [22]: 0.824 µg/mL

Substance: b12 (antibody)
- IC50 (µg/ml), pseudovirus neutralization [1]: 2.38 µg/mL
- IC50, pseudovirus neutralization [2]: 5.23 µg/mL
- IC50 (µg/ml), pseudovirus neutralization [3]: > 50 µg/mL
- IC50, pseudovirus neutralization [4]: 0.78 µg/mL
- IC50, pseudovirus neutralization [5]: > 50 µg/mL
- IC50 [6]: > 50 µg/mL
- IC50 (µg/ml), pseudovirus neutralization [7]: > 50 µg/mL
- IC50 (µg/ml), pseudovirus neutralization [8]: 2.82 µg/mL
- IC50 (µg/ml), pseudovirus neutralization [9]: > 50 µg/mL
- IC50 (µg/ml), pseudovirus neutralization [10]: > 50 µg/mL
- IC50 (µg/ml), pseudovirus neutralization [11]: > 50 µg/mL
- IC50 [12]: > 50 µg/mL
- IC50 (µg/ml), pseudovirus neutralization [13]: > 50 µg/mL
- IC50 (µg/ml), pseudovirus neutralization [14]: 21.4 µg/mL
- IC50 (µg/ml), pseudovirus neutralization [15]: > 50 µg/mL
- IC50 (µg/ml), pseudovirus neutralization [16]: 0.73 µg/mL

Substance: 1495_C14 (PGC14) (antibody)
- IC50 (µg/ml), pseudovirus neutralization [1]: > 50 µg/mL
- IC50, pseudovirus neutralization [2]: > 50 µg/mL
- IC50 (µg/ml), pseudovirus neutralization [3]: > 50 µg/mL
- IC50, pseudovirus neutralization [4]: > 50 µg/mL
- IC50, pseudovirus neutralization [5]: > 50 µg/mL
- IC50 [6]: > 50 µg/mL
- IC50 (µg/ml), pseudovirus neutralization [7]: > 50 µg/mL
- IC50 (µg/ml), pseudovirus neutralization [8]: > 50 µg/mL
- IC50 (µg/ml), pseudovirus neutralization [9]: > 50 µg/mL
- IC50 (µg/ml), pseudovirus neutralization [10]: 46 µg/mL
- IC50 (µg/ml), pseudovirus neutralization [11]: > 50 µg/mL
- IC50 [12]: > 50 µg/mL
- IC50 (µg/ml), pseudovirus neutralization [13]: > 50 µg/mL
- IC50 (µg/ml), pseudovirus neutralization [14]: 19 µg/mL
- IC50 (µg/ml), pseudovirus neutralization [15]: > 50 µg/mL
- IC50 (µg/ml), pseudovirus neutralization [16]: > 50 µg/mL

Substance: PGT-144 (4970_K22) (antibody)
- IC50 [17]: 3.55 µg/mL
- IC50, pseudovirus neutralization [18]: 0.507 µg/mL
- IC50 [19]: > 50 µg/mL
- IC50 [20]: > 50 µg/mL
- IC50, pseudovirus neutralization [21]: 1.16 µg/mL
- IC50, pseudovirus neutralization [22]: 8.93 µg/mL

Substance: PGT-141 (4964_G22; 4993_K13) (antibody)
- IC50 [17]: 0.101 µg/mL
- IC50, pseudovirus neutralization [18]: 0.193 µg/mL
- IC50 [19]: 18 µg/mL
- IC50 [20]: > 50 µg/mL
- IC50, pseudovirus neutralization [21]: 0.307 µg/mL
- IC50, pseudovirus neutralization [22]: 1.15 µg/mL

Substance: 2G12 (antibody)
- IC50 (µg/ml), pseudovirus neutralization [1]: > 50 µg/mL
- IC50, pseudovirus neutralization [2]: 23 µg/mL
- IC50 (µg/ml), pseudovirus neutralization [3]: > 50 µg/mL
- IC50, pseudovirus neutralization [4]: > 50 µg/mL
- IC50, pseudovirus neutralization [5]: > 50 µg/mL
- IC50 [6]: 1.81 µg/mL
- IC50 (µg/ml), pseudovirus neutralization [7]: > 50 µg/mL
- IC50 (µg/ml), pseudovirus neutralization [8]: 0.55 µg/mL
- IC50 (µg/ml), pseudovirus neutralization [9]: 26.1 µg/mL
- IC50 (µg/ml), pseudovirus neutralization [10]: 0.48 µg/mL
- IC50 (µg/ml), pseudovirus neutralization [11]: > 50 µg/mL
- IC50 (µg/ml), pseudovirus neutralization [13]: 28.2 µg/mL
- IC50 (µg/ml), pseudovirus neutralization [14]: > 50 µg/mL
- IC50 (µg/ml), pseudovirus neutralization [15]: 45.2 µg/mL
- IC50 (µg/ml), pseudovirus neutralization [16]: 4.39 µg/mL

Substance: 2F5 (antibody)
- IC50 (µg/ml), pseudovirus neutralization [1]: 1.07 µg/mL
- IC50, pseudovirus neutralization [2]: > 50 µg/mL
- IC50 (µg/ml), pseudovirus neutralization [3]: 4.61 µg/mL
- IC50, pseudovirus neutralization [4]: > 50 µg/mL
- IC50, pseudovirus neutralization [5]: 2.12 µg/mL
- IC50 [6]: > 50 µg/mL
- IC50 (µg/ml), pseudovirus neutralization [7]: > 50 µg/mL
- IC50 (µg/ml), pseudovirus neutralization [8]: > 50 µg/mL
- IC50 (µg/ml), pseudovirus neutralization [9]: 39.1 µg/mL
- IC50 (µg/ml), pseudovirus neutralization [10]: 3.36 µg/mL
- IC50 (µg/ml), pseudovirus neutralization [11]: 24.8 µg/mL
- IC50 [12]: 14.6 µg/mL
- IC50 (µg/ml), pseudovirus neutralization [13]: 2.24 µg/mL
- IC50 (µg/ml), pseudovirus neutralization [14]: > 50 µg/mL
- IC50 (µg/ml), pseudovirus neutralization [15]: 3.24 µg/mL
- IC50 (µg/ml), pseudovirus neutralization [16]: 5.42 µg/mL

Substance: VRC01 (antibody)
- IC50, pseudovirus neutralization [23]: 0.187 µg/mL
- IC50 [17]: 1.72 µg/mL
- IC50, pseudovirus neutralization [24]: 0.657 µg/mL
- IC50, single-round pseudovirus neutralization [25]: 1.13 µg/mL
- IC50, pseudovirus neutralization [18]: 1.11 µg/mL
- IC50 (µg/mL), single-round pseudovirus neutralization [26]: 0.685 µg/mL
- IC50 [19]: 0.228 µg/mL
- IC50 [20]: 0.043 µg/mL
- IC50, pseudovirus neutralization [27]: 0.117 µg/mL
- IC50 (µg/mL), pseudovirus neutralization [28]: 0.025 µg/mL
- IC50, pseudovirus neutralization [21]: 0.392 µg/mL
- IC50, pseudovirus neutralization [22]: 1.89 µg/mL
- IC50 (µg/mL), single-round pseudovirus neutralization [29]: 0.616 µg/mL

Substance: 1443_C16 (PG16) (TCN-116) (antibody)
- IC50 (µg/ml), pseudovirus neutralization [1]: 0.01 µg/mL
- IC50, pseudovirus neutralization [2]: > 50 µg/mL
- IC50 (µg/ml), pseudovirus neutralization [3]: 24.8 µg/mL
- IC50, pseudovirus neutralization [4]: > 50 µg/mL
- IC50, pseudovirus neutralization [5]: 0.11 µg/mL
- IC50 [6]: 0.003 µg/mL
- IC50 (µg/ml), pseudovirus neutralization [7]: > 50 µg/mL
- IC50 (µg/ml), pseudovirus neutralization [8]: 0.73 µg/mL
- IC50 (µg/ml), pseudovirus neutralization [9]: 0.11 µg/mL
- IC50 (µg/ml), pseudovirus neutralization [10]: 0.28 µg/mL
- IC50 (µg/ml), pseudovirus neutralization [11]: > 50 µg/mL
- IC50 [12]: 0.01 µg/mL
- IC50 (µg/ml), pseudovirus neutralization [13]: 3.09 µg/mL
- IC50 (µg/ml), pseudovirus neutralization [14]: 0.25 µg/mL
- IC50 (µg/ml), pseudovirus neutralization [15]: 0.01 µg/mL
- IC50 (µg/ml), pseudovirus neutralization [16]: > 50 µg/mL

Substance: PGT-145 (4995_P16) (antibody)
- IC50 [17]: 1.46 µg/mL
- IC50, pseudovirus neutralization [18]: 0.228 µg/mL
- IC50 [19]: 0.164 µg/mL
- IC50 [20]: > 50 µg/mL
- IC50, pseudovirus neutralization [21]: 5.88 µg/mL
- IC50, pseudovirus neutralization [22]: 0.816 µg/mL
